This is an account of results in US20200239524A1 (University of Washington, published 2020).

The experiment concerns the target T1, Bcl2 (UniProt P10415 1-207, limits assumed, biotinylated).
T1 construct: Loaded on streptavidin biosensors; also called Biotinylated Bcl2; target
The experiment is described as follows: bio-layer interferometry (Octet), Bcl2 on tips, switch with nine residue toehold with and without cognate key. The source says: Specificity was designed for using different hydrogen bond networks at the cage-key interface. The latch helix was deleted from the original extended LOCKRₐ model and backbones for a new sixth helix were generated by parametrically sampling the radius, helical phase, and z-offset of the new latch/key helix. The resulting structures were scanned for new hydrogen bond networks spanning the interface between the new sixth helix and cage with all buried polar atoms participating in hydrogen bonds; the remaining interface around the networks was subjected to full sequence and sidechain rotamer optimization using Rosetta™ design. Five designs were selected based on packing quality, sequence dissimilarity, and lack of buried polar atoms not participating in hydrogen bonds. Truncations and toehold variants were assayed for cognate and off target key binding using the GFP pulldown assay from FIG. 1c. […] All bound keyₐ to some extent yet is unknown. The Bim sequence was threaded onto the latches of these three designs as it was for the original design, BimLOCKRₐ (FIG. 2). BimLOCKRb and BimLOCKR, show 22-fold and 8-fold activation, respectively, from their cognate keys given a nine residue toehold on the latch (FIG. 3a,b). BimLOCKRₐ, BimLOCKRb and BimLOCKRc are also orthogonal; each is activated only by its cognate key at concentrations up to 5 uM (FIG. 3c). […]
A general note: In BLI a coated tip is dipped into the sample, and binding shifts an interference pattern.

T1 sequence (P10415 1-207 limits assumed): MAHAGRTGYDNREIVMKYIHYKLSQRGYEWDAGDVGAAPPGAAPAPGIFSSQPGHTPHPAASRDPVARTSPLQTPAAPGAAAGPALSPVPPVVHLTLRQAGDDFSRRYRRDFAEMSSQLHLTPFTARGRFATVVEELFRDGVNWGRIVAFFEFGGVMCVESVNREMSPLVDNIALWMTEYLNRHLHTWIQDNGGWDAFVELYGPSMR

B1: BimLOCKRc (nine residue toehold) (designed binder)
chain: MGSSHHHHHHSSGLVPRGSHMSLEAVLKLAELNLKLSDKLAEAVQKLAALLNKLLEKLSEALQRLFELNVALVTLAIELTDPKRIADEIKKVKDKSKEIVERAEEEIARAAAESKKILDEAEEEIARAAAESKKILDEGSGSGSDAVAELQALNLKLAELLLEAVAELQALNLKLAELLLEAIAKLQELNIKLVELLTKLTDPATIREAIRKVKEDSERIVAEAERLIAAAKAESERIIREAERLIAAAKAESERIIREGSGSNDPLVARLQELLIEHARELLRLVATSQEIFIELARAFLANAAQLQEAAIKAVEAASENGSGEIWIAQELRRIGDEFNAYYAQNQKLLKDHKRAQEKLNRELEELKKKHKK
notes: also called printed once as 'BimLOCKR,'
With B1, the “fold activation of binding by the cognate key” value is 8 fold.

B2: BimLOCKRb (nine residue toehold) (designed binder)
chain: MGSSHHHHHHSSGLVPRGSHMSHAAVIKLSDLNIRLLDKLLQAVIKLTELNAELNRKLIEALQRLFDLNVALVHLAAELTDPKRIADEIKKVKDKSKEIVERAEEEIARAAAESKKILDEAEEEIARAAAESKKILDEGSGSGSDAVAELQALNLKLAELLLEAVAELQALNLKLAELLLEAIAKLQELNIKLVELLTKLTDPATIREAIRKVKEDSERIVAEAERLIAAAKAESERIIREAERLIAAAKAESERIIREGSGSNDPQVAQNQETFIELARDALRLVAENQEAFIEVARLTLRAAALAQEVAIKAVEAASEGGSGSGNEIWIAQELRRIGDEFNAYYAEHKEIHDKLRKKNKKAREDLKKKADE
Turning to B2, the “fold activation of binding by the cognate key” value stood at 22 fold.
